Assay results reported in article PMC6748948, “A Bone Morphogenetic Protein (BMP)-derived Peptide Based on the Type I Receptor-binding Site Modifies Cell-type Dependent BMP Signalling” (Scientific Reports, 2019).

Target: Peptide P3* (BMP9-based peptide from the ALK1-binding site, biotinylated at the N-terminus) (UniProt Q9UK05)
Assay: SPR; Biacore T200; biotinylated P3* immobilised on streptavidin (SA) chip; ALK1-Fc flowed over, injection 4 min, otherwise as for the CM5 assays; steady-state fit

ALK1-Fc (activin receptor like kinase 1, Fc fusion), sequence (P37023 22-118): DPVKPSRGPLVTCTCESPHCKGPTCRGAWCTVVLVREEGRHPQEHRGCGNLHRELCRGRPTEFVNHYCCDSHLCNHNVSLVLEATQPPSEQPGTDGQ
Peptide P3* (BMP9-based peptide from the ALK1-binding site, biotinylated at the N-terminus), sequence (Q9UK05 320-429): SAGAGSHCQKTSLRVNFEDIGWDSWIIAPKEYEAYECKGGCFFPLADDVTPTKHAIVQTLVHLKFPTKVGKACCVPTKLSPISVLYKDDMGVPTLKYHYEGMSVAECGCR

- Kd: 30 mM
Substance: ALK1-Fc (activin receptor like kinase 1, Fc fusion) (from UniProt P37023 22-118)
